How the values were obtained:
[1] = target: RsAGDP1 AGD12 (residues 26–180) (Raphanus sativus); experiment: ITC; Microcal PEAQ-ITC, 25 °C; protein at 0.1 mM, peptide at 1.0–1.5 mM in the same buffer; fit with Origin 7.0
[2] = target: full-length AtAGDP1 (Arabidopsis thaliana) (UniProt Q500V5); experiment: as above
Chain of full-length AtAGDP1 (Arabidopsis thaliana) (Q500V5 whole entry): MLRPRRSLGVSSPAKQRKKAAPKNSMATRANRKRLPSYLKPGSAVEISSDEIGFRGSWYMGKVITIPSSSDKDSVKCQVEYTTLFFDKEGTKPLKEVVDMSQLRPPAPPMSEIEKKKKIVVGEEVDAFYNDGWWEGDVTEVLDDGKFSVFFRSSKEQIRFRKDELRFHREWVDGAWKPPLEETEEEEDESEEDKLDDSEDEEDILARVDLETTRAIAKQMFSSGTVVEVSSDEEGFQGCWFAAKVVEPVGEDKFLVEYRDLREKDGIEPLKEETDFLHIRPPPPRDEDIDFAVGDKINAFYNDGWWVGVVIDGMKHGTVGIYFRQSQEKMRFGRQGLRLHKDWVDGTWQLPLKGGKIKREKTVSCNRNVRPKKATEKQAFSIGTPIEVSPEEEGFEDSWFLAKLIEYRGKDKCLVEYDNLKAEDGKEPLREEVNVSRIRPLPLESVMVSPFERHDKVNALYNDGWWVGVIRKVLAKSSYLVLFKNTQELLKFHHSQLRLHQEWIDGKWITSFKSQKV

Row | fold decrease of binding against H3K9me2 [1] | stoichiometry N [2] | Substance
1 | 5 fold |  | H3K4me3K9me2 peptide
2 |  | 3 | H3K9me2 peptide (ITC)

— paper PMC6208443, “Arabidopsis AGDP1 links H3K9me2 to DNA methylation in heterochromatin” (Nature Communications, 2018)
